Article PMC6643034

Molecular target: CXCL8 (human)

B1: Evasin 3 (EVA3) (natural protein)
chain: DGGLVSTIESRTSGDGADNFDVVSCNKNCTSGQNECPEGCFCGLLGQNKKGHCYKIIGNLSGEPPVVRR
modifications: also: glycosylated
neutralization of human CXCL8-induced granulocyte migration (Transwell, EC80 dose of CXCL8, EVA3 0.02–100 nM); mean IC50 of four biological replicates: 1.94e-09 M
